According to patent publication US7662384B2, “Use of anti-α5β1 antibodies to inhibit cancer cell proliferation” (Facet Biotech Corporation, priority 2004, dated 2010):

Tests used:
[1] = biological target: α5β1 integrin binding to fibronectin (Homo sapiens, UniProt P05556+P08648); settings: cited from earlier work
[2] = test system: NW231; assay: M200 in vitro cell proliferation assay; format: cell-based, human; settings: NW231 (breast)
Method: Cancer cell lines were plated at a density of 2500 cells/well in 96-well plates in IMDM with supplements in the presence or absence of 10% FBS. At the time of plating, cells were challenged with various concentrations M200 or a non-function blocking anti-α5 antibody, VC5. […] All growth studies were done at least 3 times in triplicate.

[3] = test system: VX2 carcinoma; assay: M200 VX2 rabbit tumor efficacy study; format: in vivo
Method: Starting on Day 5, tumor dimensions (Length, Width and Height) were measured in millimeters via electronic vernier calipers connected to a laptop computer at a minimum frequency of twice weekly. For consistency, the same trained technician performed the tumor measurements throughout the course of the study. Tumor volume was calculated using the formula: Length×Width×Height×0.52. Upon animal termination, tumors were carefully excised, trimmed and weighed. In addition, animals were weighed a minimum of once weekly. Representative samples of each tumor were preserved in sample cassette in formalin or OCT and flash frozen in liquid nitrogen.
Rabbits (30 total) were inoculated, either subcutaneously or intramuscularly with either a VX2 cell suspension (100 μl) or pieces of tumor (˜5-10 mm^3). The test group of 20 was treated with M200 at 10 mg/kg intravenously, twice weekly for 3 weeks. The control group of 10 animals was treated with a control IgG delivered by the same method as the M200. Tumor measurements, termination, weighing, tumor preservation and study duration were carried out according to the methods described above for the Pilot Study. In addition, one milliliter of blood was taken from an ear vessel on a weekly basis for serum analysis.

[4] = test system: rat α5β1 integrin; assay: species cross-reactivity of anti-α5β1 antibody; format: binding
[5] = test system: VX2 tumors; settings: rabbit, in vivo, 10 mg/kg
Method: Rabbits were inoculated on Day 0 with a cell suspension (100 μl) subcutaneously (left hind limb), and intramuscularly at a depth of about 3 mm (right hind limb). Intramuscular inoculation was carried out as follows. With the rabbit under ketamine/isoflurane anesthesia, a ˜2 cm incision was made parallel to the right femur with a scalpel on the anterior, lateral aspect of the femoral axis, ˜⅓ of the total femur length distally from the femoral-pelvic (hip) joint. Muscle groups were separated to create a ˜0.5 cm deep cavity. One VX2 tumor fragment from a donor animal was placed into the cavity. Skin was securely closed with sterile surgical staples or sutures and a topical antibiotic was applied to the wound site.
M200 was administered intravenously at 10 mg/kg dosage to a tumor-bearing rabbit and the tumor was excised 1 hour later. Tumor sections were stained with either: (i) an anti-human secondary antibody specific for tumor bound M200; (ii) IIA1 followed by an anti-mouse secondary to detect total α5β1; or (iii) a control IgG and anti-mouse secondary.

[6] = test system: activated endothelial cells; settings: regardless of the growth factor stimulus; cited from earlier work
[7] = biological target: α5β1 integrin found in rabbit (Oryctolagus cuniculus, UniProt A0A5F9C3C4+A0A5F9CXX2); assay: species cross-reactivity of anti-α5β1 antibody; format: binding
Chain of α5β1 integrin found in rabbit (A0A5F9CXX2 1-1041): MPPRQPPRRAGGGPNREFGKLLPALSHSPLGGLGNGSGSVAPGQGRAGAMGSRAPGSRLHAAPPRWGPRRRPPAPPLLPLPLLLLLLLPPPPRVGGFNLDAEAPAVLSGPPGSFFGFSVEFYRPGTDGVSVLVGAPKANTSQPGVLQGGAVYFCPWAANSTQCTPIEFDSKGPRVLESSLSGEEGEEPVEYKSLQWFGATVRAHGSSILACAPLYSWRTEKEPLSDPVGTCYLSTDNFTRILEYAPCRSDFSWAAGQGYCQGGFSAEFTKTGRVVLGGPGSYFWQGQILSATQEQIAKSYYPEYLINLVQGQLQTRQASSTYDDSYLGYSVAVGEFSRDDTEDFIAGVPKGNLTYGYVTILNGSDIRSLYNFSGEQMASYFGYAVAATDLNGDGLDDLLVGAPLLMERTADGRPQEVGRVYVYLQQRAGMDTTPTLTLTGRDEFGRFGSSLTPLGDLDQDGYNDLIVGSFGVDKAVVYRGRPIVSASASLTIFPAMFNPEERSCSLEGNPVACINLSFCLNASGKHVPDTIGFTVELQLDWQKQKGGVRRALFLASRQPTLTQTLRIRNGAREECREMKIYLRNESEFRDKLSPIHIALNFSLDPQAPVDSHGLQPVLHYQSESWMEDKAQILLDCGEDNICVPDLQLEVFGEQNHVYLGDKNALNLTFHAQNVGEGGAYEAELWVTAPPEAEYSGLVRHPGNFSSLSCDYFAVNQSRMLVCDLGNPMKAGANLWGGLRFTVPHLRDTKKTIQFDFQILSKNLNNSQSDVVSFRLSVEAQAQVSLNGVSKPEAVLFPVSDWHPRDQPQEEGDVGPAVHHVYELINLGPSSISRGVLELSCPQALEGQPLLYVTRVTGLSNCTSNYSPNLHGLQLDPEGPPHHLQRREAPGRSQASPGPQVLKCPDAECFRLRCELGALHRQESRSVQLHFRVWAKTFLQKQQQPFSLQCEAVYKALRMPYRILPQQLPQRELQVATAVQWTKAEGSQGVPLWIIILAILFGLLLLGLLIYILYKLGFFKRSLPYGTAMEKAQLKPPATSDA
Chain of α5β1 integrin found in rabbit (A0A5F9C3C4 21-798): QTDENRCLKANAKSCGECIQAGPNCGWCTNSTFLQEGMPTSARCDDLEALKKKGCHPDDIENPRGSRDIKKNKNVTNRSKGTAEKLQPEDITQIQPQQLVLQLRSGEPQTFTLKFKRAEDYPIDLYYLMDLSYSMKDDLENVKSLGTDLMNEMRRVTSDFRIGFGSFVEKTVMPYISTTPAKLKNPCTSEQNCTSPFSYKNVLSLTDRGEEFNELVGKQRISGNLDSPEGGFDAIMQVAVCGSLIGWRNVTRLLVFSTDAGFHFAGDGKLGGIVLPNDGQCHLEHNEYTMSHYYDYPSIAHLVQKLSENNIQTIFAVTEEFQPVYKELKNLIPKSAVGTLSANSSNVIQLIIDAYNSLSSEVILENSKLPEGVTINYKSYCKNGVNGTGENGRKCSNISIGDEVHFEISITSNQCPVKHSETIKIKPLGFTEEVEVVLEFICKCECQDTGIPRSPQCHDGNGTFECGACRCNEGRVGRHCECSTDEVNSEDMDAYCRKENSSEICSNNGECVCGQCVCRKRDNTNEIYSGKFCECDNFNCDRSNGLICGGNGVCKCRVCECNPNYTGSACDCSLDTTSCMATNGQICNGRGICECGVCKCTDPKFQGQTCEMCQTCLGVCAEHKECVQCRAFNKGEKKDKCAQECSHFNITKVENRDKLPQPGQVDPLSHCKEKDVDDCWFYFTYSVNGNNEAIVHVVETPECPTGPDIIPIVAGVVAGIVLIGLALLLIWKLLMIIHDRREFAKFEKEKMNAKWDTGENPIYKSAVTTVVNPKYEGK

[8] = human, in vivo, 10 mg/kg
Method: The serum for measuring M200 concentrations was obtained immediately before and after the first dose, and at 4, 24, 48, and 168 hours after completion of the first dose. Serum samples for measuring M200 concentrations were also taken immediately before, at the end, and 4 hours after the completion of each subsequent infusion. These samples were split and aliquots assayed before the next dose and again at the end of the study: end of 1st dose, 168 hours after 1st dose, immediately pre-dose (trough) and immediately post-dose (peak) for the 2nd, 3rd, 4th and 5th doses. The serum levels of M200 were measured by ELISA.
The plasma concentration-time data of M200 from each patient was subjected to a PK analysis. The following parameters were included in the calculations: peak (Cmax) and trough (Cmin) levels, terminal phase half-life (T1/2 β), area under the plasma-concentration time curve (AUC), elimination clearance (CL), and volume of distribution (V). Summary parameters were computed across patients from each treatment group. Changes in the PK parameters as a function of dose and time were also evaluated.

[9] = Phase I dose-escalation study: safety / adverse events; format: in vivo, human
Method: The dosing levels and schedule used in the study were as follows. M200 was administered to the 21 patients on days 1, 15, 22, 29, and 36. The dosing levels and numbers of patients per level were: 0.5 mg/kg (1 patient), 1.0 mg/kg (2 patient), 2.5 mg/kg (3 patients), 5.0 mg/kg (3 patients), 10.0 mg/kg (6 patients) and 15 mg/kg (6 patients). The dose was administered as an intravenous infusion over 1 hour. The first and second doses were separated by a two week period to allow sampling for single-dose pharmacokinetic data. The real-time PK measurements performed following the first dose were used to predict each patient's peak serum concentration following the fifth dose. If the predicted peak serum concentration following the fifth dose was <750 μg/mL, the patient received all 5 doses of M200. The remaining 3 doses were given weekly and followed by a 45-day evaluation period.
Adverse events were graded using the National Cancer Institute (NCI) Common Terminology Criteria for Adverse Events (CTCAE), version 3.0. Dose-limiting toxicity was defined as any Grade-3 or Grade-4 adverse event, excluding scheduled hospitalizations or elective surgeries. Grade-3 or Grade-4 adverse events thought to be unrelated to M200 were excluded where appropriate following a review with the medical monitor and regulatory agencies.

[10] = predicted human serum levels of M200 from monkey PK data; set-up: species or system humans
Method: At the highest dose in humans (15.0 mg/kg), the mean peak after 5 doses was predicted to be 592 μg/mL with the range of variability in humans predicted as 320 to 829 μg/mL. Table 3, was compiled using PK data from the monkey studies to predict the peak and tough serum concentrations (Cmax and Cmin, respectively) for each dose at each dose level in humans.

Chain of α5β1 integrin binding to fibronectin (P08648 42-894 limits assumed): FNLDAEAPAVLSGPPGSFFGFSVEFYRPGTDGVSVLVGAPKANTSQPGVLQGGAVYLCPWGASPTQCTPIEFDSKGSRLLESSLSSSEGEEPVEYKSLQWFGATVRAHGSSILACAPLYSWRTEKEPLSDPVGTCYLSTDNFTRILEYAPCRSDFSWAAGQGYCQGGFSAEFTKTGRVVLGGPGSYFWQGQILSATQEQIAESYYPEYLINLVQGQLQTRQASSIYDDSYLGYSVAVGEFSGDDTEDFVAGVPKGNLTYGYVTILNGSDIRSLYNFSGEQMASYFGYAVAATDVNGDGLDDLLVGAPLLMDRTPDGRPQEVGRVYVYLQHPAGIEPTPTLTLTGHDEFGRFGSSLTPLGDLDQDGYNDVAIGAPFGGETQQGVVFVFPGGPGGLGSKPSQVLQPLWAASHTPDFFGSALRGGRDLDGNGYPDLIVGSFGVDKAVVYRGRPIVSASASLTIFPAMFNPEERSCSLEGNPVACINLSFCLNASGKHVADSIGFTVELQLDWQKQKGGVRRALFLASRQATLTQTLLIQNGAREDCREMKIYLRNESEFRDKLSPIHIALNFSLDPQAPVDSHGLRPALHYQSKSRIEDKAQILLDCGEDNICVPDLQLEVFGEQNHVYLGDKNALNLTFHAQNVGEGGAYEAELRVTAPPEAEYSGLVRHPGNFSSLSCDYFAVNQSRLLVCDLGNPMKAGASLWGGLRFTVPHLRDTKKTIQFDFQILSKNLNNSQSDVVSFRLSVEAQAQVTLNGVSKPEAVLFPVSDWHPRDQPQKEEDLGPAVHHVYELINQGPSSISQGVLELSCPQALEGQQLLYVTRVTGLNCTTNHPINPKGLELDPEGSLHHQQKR
Chain of α5β1 integrin binding to fibronectin (P08648 895-1049 limits assumed): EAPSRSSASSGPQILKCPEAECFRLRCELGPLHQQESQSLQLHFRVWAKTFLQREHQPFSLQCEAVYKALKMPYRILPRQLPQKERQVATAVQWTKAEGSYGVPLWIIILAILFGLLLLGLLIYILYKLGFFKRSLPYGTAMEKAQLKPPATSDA
Chain of α5β1 integrin binding to fibronectin (P05556 21-798): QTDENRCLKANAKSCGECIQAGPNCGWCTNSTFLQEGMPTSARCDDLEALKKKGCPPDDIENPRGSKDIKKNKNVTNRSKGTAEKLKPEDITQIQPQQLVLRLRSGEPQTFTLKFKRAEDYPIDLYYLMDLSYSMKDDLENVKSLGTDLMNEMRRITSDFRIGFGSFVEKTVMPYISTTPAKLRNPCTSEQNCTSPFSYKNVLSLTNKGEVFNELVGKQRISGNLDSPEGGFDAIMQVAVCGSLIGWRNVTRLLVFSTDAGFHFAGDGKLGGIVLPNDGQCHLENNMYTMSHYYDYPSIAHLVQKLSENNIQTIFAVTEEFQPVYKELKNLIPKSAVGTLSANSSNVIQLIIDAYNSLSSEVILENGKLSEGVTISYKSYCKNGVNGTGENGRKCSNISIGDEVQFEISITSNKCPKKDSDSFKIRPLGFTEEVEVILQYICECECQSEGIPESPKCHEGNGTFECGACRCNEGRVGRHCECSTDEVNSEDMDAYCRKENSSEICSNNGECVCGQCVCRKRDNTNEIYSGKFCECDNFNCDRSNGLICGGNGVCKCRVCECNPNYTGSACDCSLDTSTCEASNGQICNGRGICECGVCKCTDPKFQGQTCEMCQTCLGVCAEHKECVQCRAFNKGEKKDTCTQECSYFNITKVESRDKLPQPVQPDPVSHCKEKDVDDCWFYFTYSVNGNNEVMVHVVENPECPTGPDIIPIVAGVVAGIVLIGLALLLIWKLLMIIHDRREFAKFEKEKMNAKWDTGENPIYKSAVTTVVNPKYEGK

B1: IIA1: parent mouse IgG1 class anti-α5β1 antibody shown to inhibit α5β1 integrin binding to fibronectin (antibody, V domains shown)
VH: MAVLGLLLCLVTFPSCVLSQVQLKESGPGLVAPSQSLSITCTISGFSLTDYGVHWVRQPPGKGLEWLVVIWSDGSSTYNSALKSRMTIRKDNSKSQVFLIMNSLQTDDSAMYYCARHGTYYGMTTTGDALDYWGQGTSVTVSS
VL: MDFQVQIFSFLLISASVIMSRGQIVLTQSPAIMSASLGERVTMTCTASSSVSSNYLHWYQQKPGSAPNLWIYSTSNLASGVPARFSGSGSGTSYSLTISSMEAEDAATYYCHQYLRSPPTFGGGTKLEIK
modifications: mus muscalus
Q: Which “inhibition of α5β1 integrin binding to fibronectin” value [1] does the source give for B1 here?
A: inhibit α5β1 integrin binding to fibronectin

B2: M200: chimeric IgG4 anti-α5β1 antibody derived from IIA1; generic name volociximab (antibody, V domains shown)
VH: B1 VH
VL: MDFQVQIFSFLLISASVIMSRGQIVLTQSPAIMSASLGERVTMTCTASSSVSSNYLHWYQQKPGSAPNLWIYSTSNLASGVPARFSGSGSGTSYSLTISSMEAEDAATYYCHQYLRSPPTFGGGTKLEIKDMSVDMSV
modifications: chimeric antibody
notes: chimeric IgG4 anti-α5β1 antibody derived from IIA1; generic name volociximab
Q: What does the source list for B2?
A: % Growth Inhibition +Serum ([2]; 10% FBS, 4-day assay): 35%; % Growth Inhibition −Serum ([2]; absence of serum, 2-day rather than 4-day assay): 10^2%; circulating level of M200 at which tumor growth was inhibited ([3]; rabbit VX2 model): ≥ 50 µg/mL; VX2 tumor growth ([3]; rabbit, 10 mg/kg intravenously, twice weekly for 3 weeks): able to inhibit tumor growth; immunogenicity ([3]; rabbits, immune response as early as two weeks, eventually all animals seroconvert): immunogenic in rabbits; cross reaction with rat α5β1 integrin [4]: does not cross react; accessibility of subcutaneous and intramuscular VX2 tumors to antibody, assessed by IHC [5]: accessible to M200; apoptosis of activated endothelial cells in vitro [6]: induce apoptosis; recognition of α5β1 integrin found in rabbit [7]: does recognize; T1/2 [8]: 15.7 days; dose-limiting toxicities ([9]; doses up to 15 mg/kg): no dose-limiting M200 toxicities were observed; tolerability in patients ([9]; doses up to 15 mg/kg): well tolerated; adverse events, intensity ([9]; fatigue, nausea, constipation, headache and anorexia): generally mild to moderate in intensity; infusion reaction ([9]; the one patient who received 0.5 mg/kg): fever after the first dose; Estimated peak serum level (Cmax) in humans ([10]; 0.5 mg/kg, dose number 1): 11 µg/mL; Estimated trough serum level (Cmin) in humans ([10]; 0.5 mg/kg, dose number 1): 1.5 µg/mL; Estimated peak serum level (Cmax) in humans ([10]; 0.5 mg/kg, dose number 2): 11 µg/mL; Estimated trough serum level (Cmin) in humans ([10]; 0.5 mg/kg, dose number 2): 1.6 µg/mL; Estimated peak serum level (Cmax) in humans ([10]; 0.5 mg/kg, dose number 3): 12 µg/mL; Estimated trough serum level (Cmin) in humans ([10]; 0.5 mg/kg, dose number 3): 2 µg/mL; Estimated peak serum level (Cmax) in humans ([10]; 0.5 mg/kg, dose number 4): 13 µg/mL; Estimated trough serum level (Cmin) in humans ([10]; 0.5 mg/kg, dose number 4): 2.1 µg/mL; Estimated peak serum level (Cmax) in humans ([10]; 0.5 mg/kg, dose number 5): 13 µg/mL; Estimated trough serum level (Cmin) in humans ([10]; 0.5 mg/kg, dose number 5): 2.2 µg/mL; Estimated peak serum level (Cmax) in humans ([10]; 1.0 mg/kg, dose number 1): 22 µg/mL; Estimated trough serum level (Cmin) in humans ([10]; 1.0 mg/kg, dose number 1): 3 µg/mL; Estimated peak serum level (Cmax) in humans ([10]; 1.0 mg/kg, dose number 2): 22 µg/mL; Estimated trough serum level (Cmin) in humans ([10]; 1.0 mg/kg, dose number 2): 3 µg/mL; Estimated peak serum level (Cmax) in humans ([10]; 1.0 mg/kg, dose number 3): 25 µg/mL; Estimated trough serum level (Cmin) in humans ([10]; 1.0 mg/kg, dose number 3): 4 µg/mL; Estimated peak serum level (Cmax) in humans ([10]; 1.0 mg/kg, dose number 4): 26 µg/mL; Estimated trough serum level (Cmin) in humans ([10]; 1.0 mg/kg, dose number 4): 5 µg/mL; Estimated peak serum level (Cmax) in humans ([10]; 1.0 mg/kg, dose number 5): 26 µg/mL; Estimated trough serum level (Cmin) in humans ([10]; 1.0 mg/kg, dose number 5): 5 µg/mL; Estimated peak serum level (Cmax) in humans ([10]; 2.5 mg/kg, dose number 1): 54 µg/mL; Estimated trough serum level (Cmin) in humans ([10]; 2.5 mg/kg, dose number 1): 9 µg/mL; Estimated peak serum level (Cmax) in humans ([10]; 2.5 mg/kg, dose number 2): 57 µg/mL; Estimated trough serum level (Cmin) in humans ([10]; 2.5 mg/kg, dose number 2): 10 µg/mL; Estimated peak serum level (Cmax) in humans ([10]; 2.5 mg/kg, dose number 3): 64 µg/mL; Estimated trough serum level (Cmin) in humans ([10]; 2.5 mg/kg, dose number 3): 13 µg/mL; Estimated peak serum level (Cmax) in humans ([10]; 2.5 mg/kg, dose number 4): 67 µg/mL; Estimated trough serum level (Cmin) in humans ([10]; 2.5 mg/kg, dose number 4): 14 µg/mL; Estimated peak serum level (Cmax) in humans ([10]; 2.5 mg/kg, dose number 5): 68 µg/mL; Estimated trough serum level (Cmin) in humans ([10]; 2.5 mg/kg, dose number 5): 15 µg/mL; Estimated peak serum level (Cmax) in humans ([10]; 5.0 mg/kg, dose number 1): 108 µg/mL; Estimated trough serum level (Cmin) in humans ([10]; 5.0 mg/kg, dose number 1): 20 µg/mL; Estimated peak serum level (Cmax) in humans ([10]; 5.0 mg/kg, dose number 2): 114 µg/mL; Estimated trough serum level (Cmin) in humans ([10]; 5.0 mg/kg, dose number 2): 24 µg/mL; Estimated peak serum level (Cmax) in humans ([10]; 5.0 mg/kg, dose number 3): 132 µg/mL; Estimated trough serum level (Cmin) in humans ([10]; 5.0 mg/kg, dose number 3): 33 µg/mL; Estimated peak serum level (Cmax) in humans ([10]; 5.0 mg/kg, dose number 4): 141 µg/mL; Estimated trough serum level (Cmin) in humans ([10]; 5.0 mg/kg, dose number 4): 39 µg/mL; Estimated peak serum level (Cmax) in humans ([10]; 5.0 mg/kg, dose number 5): 147 µg/mL; Estimated trough serum level (Cmin) in humans ([10]; 5.0 mg/kg, dose number 5): 43 µg/mL; Estimated peak serum level (Cmax) in humans ([10]; 10.0 mg/kg, dose number 1): 216 µg/mL; Estimated trough serum level (Cmin) in humans ([10]; 10.0 mg/kg, dose number 1): 51 µg/mL; Estimated peak serum level (Cmax) in humans ([10]; 10.0 mg/kg, dose number 2): 236 µg/mL; Estimated trough serum level (Cmin) in humans ([10]; 10.0 mg/kg, dose number 2): 66 µg/mL; Estimated peak serum level (Cmax) in humans ([10]; 10.0 mg/kg, dose number 3): 282 µg/mL; Estimated trough serum level (Cmin) in humans ([10]; 10.0 mg/kg, dose number 3): 101 µg/mL; Estimated peak serum level (Cmax) in humans ([10]; 10.0 mg/kg, dose number 4): 317 µg/mL; Estimated trough serum level (Cmin) in humans ([10]; 10.0 mg/kg, dose number 4): 131 µg/mL; Estimated peak serum level (Cmax) in humans ([10]; 10.0 mg/kg, dose number 5): 346 µg/mL; Estimated trough serum level (Cmin) in humans ([10]; 10.0 mg/kg, dose number 5): 156 µg/mL; predicted terminal half-life in humans ([10]; 15.0 mg/kg): about 13 days; Estimated Cmax range (54-140%) in humans ([10]; 15.0 mg/kg, dose number 1): 175 to 453 µg/mL; Estimated peak serum level (Cmax) in humans ([10]; 15.0 mg/kg, dose number 1): 324 µg/mL; Estimated trough serum level (Cmin) in humans ([10]; 15.0 mg/kg, dose number 1): 91 µg/mL; Estimated Cmax range (54-140%) in humans ([10]; 15.0 mg/kg, dose number 2): 197 to 512 µg/mL; Estimated peak serum level (Cmax) in humans ([10]; 15.0 mg/kg, dose number 2): 366 µg/mL; Estimated trough serum level (Cmin) in humans ([10]; 15.0 mg/kg, dose number 2): 126 µg/mL; Estimated Cmax range (54-140%) in humans ([10]; 15.0 mg/kg, dose number 3): 243 to 629 µg/mL; Estimated peak serum level (Cmax) in humans ([10]; 15.0 mg/kg, dose number 3): 450 µg/mL; Estimated trough serum level (Cmin) in humans ([10]; 15.0 mg/kg, dose number 3): 200 µg/mL; Estimated Cmax range (54-140%) in humans ([10]; 15.0 mg/kg, dose number 4): 283 to 733 µg/mL; Estimated peak serum level (Cmax) in humans ([10]; 15.0 mg/kg, dose number 4): 524 µg/mL; Estimated trough serum level (Cmin) in humans ([10]; 15.0 mg/kg, dose number 4): 268 µg/mL; Estimated peak serum level (Cmax) in humans ([10]; 15.0 mg/kg, dose number 5): 592 µg/mL; Estimated trough serum level (Cmin) in humans ([10]; 15.0 mg/kg, dose number 5): 332 µg/mL; predicted time to steady state concentration ([10]; all doses <10.0 mg/kg): ≤ 4 weeks; predicted time to steady state concentration ([10]; doses ≧10.0 mg/kg): ≤ 5 weeks
